The chains are these.
B1: recombinant human Bri2(90-236) (other, not shown: small tags and cut ends)
chain: GIKYIKDDVILNEPSADAPAALYQTIEENIKIFEEEEVEFISVPVPEFADSDPANIVHDFNKKLTAYLDLNLDKCYVIPLNTSIVMPPRNLLELLINIKAGTYLPQSYLIHEHMVITDRIENIDHLGFFIYRLCHDKETYKLQRRET

One assay deals with human Aβ1-40 peptide (human). The assay is described as follows: cell-based or functional assay.
In assay [1] the target is B1. The assay is described as follows: ESI-MS. On the procedure: Protein and peptides were mixed at 22° C. directly before analysis at a final protein concentration of 20 μM and a final peptide concentration of 50 μM. Data was acquired using a QTOF Ultima API mass spectrometer (Waters, Milford, Mass., USA) equipped with a Z-spray source operated in the positive-ion mode. Samples were introduced via nano-electrospray using metal-plated borosilicate glass capillary needles (Proxeon, Denmark). The source temperature was 80° C., the capillary voltage 1.7 kV, and the cone and RF lens 1 potentials were 100 and 38 V, respectively. The mass spectrometer was operated in single-reflector mode at a resolution of 10 000 (full width half maximum definition), and the mass scale was calibrated using myoglobin. Scans were acquired at a rate of 1 scan per 2 sec between 500 and 4000 m/z. The collision gas was argon at 5.2×10⁻⁵ mbar. Mass spectra were smoothed using the Waters MassLynx software.
Mass spectra were recorded to investigate the presence and stoichiometry of protein-peptide complexes in the gas phase.

Sequence of human Aβ1-40 peptide (human) (peptide, as listed by the source): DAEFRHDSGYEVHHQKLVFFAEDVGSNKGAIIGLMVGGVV

For the molecule B1, the “fold prolongation of the half time of Aβ1-40 aggregation, ThT fluorescence” value in the assay with human Aβ1-40 peptide is about 4.5 times. In the case of H-KFFEYNGKKFFE-OH (also called synthetic peptide), the binding result in assay [1] is “binds”.

Source of the values: patent US20130172262A1 (ALPHABETA, published 2013).
